In article PMC3173486:

Legend:
[1] = target: HA of A/HongKong/156/97 (H5N1, clade 0) (influenza A virus A/HongKong/156/97 (H5N1)) (UniProt O56140)
[2] = target: HA of A/HongKong/156/97 (H5N1, clade 0) (influenza A virus A/HongKong/156/97 (H5N1)), O56140
[3] = target: HA of A/Indonesia/5/05 (H5N1, clade 2.1) (influenza A virus A/Indonesia/5/05 (H5N1))
[4] = target: HA of A/VietNam/1194/04 (H5N1, clade 1) (influenza A virus A/VietNam/1194/04 (H5N1))

For “RpSP-D trimers (from UniProt Q9N1X4 21-378) (natural protein)”, the HI assay: minimal inhibitory concentration of RpSP-D trimers; failed to inhibit [1] was greater than 4500 ng/100 µl.

B1: recombinant porcine SP-D, Q9N1X4 21-378 (natural protein)
chain: AEMKTYSQRAVANACALVMCSPMENGLPGRDGRDGREGPRGEKGDPGLPGAVGRAGMPGLAGPVGPKGDNGSTGEPGAKGDIGPCGPPGPPGIPGPAGKEGPSGQQGNIGPPGTPGPKGETGPKGEVGALGMQGSTGARGPAGLKGERGAPGERGAPGSAGAAGPAGATGPQGPSGARGPPGLKGDRGPPGERGAKGESGLPGITALRQQVETLQGQVQRLQKAFSQYKKVELFPNGRGVGEKIFKTGGFEKTFQDAQQVCTQAGGQMASPRSETENEALSQLVTAQNKAAFLSMTDIKTEGNFTYPTGEPLVYANWAPGEPNNNGGSSGAENCVEIFPNGKWNDKACGELRLVICEF
Work on B1 yielded an HI assay: concentration of RpSP-D required to prevent hemagglutination [2] of 4500 ng/100 µl.

B2: RpSP-D multimers (natural protein)
chain: B1 chain
B2 showed an HI assay: minimal inhibitory concentration of RpSP-D multimers (HA of the H5N1 viruses) of 1400 ng/100 µl.

B3: RpSP-D trimers (natural protein)
chain: B1 chain
B3 was tested, and the HI assay: minimal inhibitory concentration of RpSP-D trimers; failed to inhibit [3] was greater than 4500 ng/100 µl and the HI assay: minimal inhibitory concentration of RpSP-D trimers; failed to inhibit [4] was greater than 4500 ng/100 µl.
